# Assay results: US20230408517A1 (BIO TECHNE, published 2023)
# Read-outs that look alike come from different tables or passages of the source.
# B1: 1035414 (antibody, V domains shown)
# VH: QVQLKQSGAELVRPGASVKLSCKTSGYIFTSYWIHWVKQRSGQGLEWIARIYPGTGNTYYNEKFKGKATLTADKSSTTAYMQLSSLKSEDSAVYFCARGEDNLYYYAMDYWGQGTSVTVSS
# VL: NIVLTQSPASLAVSLGQRATISCRASESVDSYGTSFMHWYQQKPGQPPKLLIYLASNLESGVPASFSGSGSRTDFTLTIDPVEADDAATYYCQQNNEDPWTFGGGTKLEIK
# B2: 1035211 (antibody, V domains shown)
# VH: QVQLQQSGAELARPGASVKMSCKASGYTFTNYTMHWVKQRPGQGLEWIGYINPSSGYTNYNQKFKDKATLTADKSSSTAYMQLSSLTSEDSAVYYCARRNPLYAMDYWGQGTSVTVSS
# VL: DIKMTQSPSSMYASLGERVTITCKASQDINSYLNWFQQKPGKSPKTLIYRANRLVDGVPSRFSGSGSGQDYSLTISSLEFEDMGIYYCLQYDEFPYTFGGGTKLEIK
# B3: 1035423 (antibody, V domains shown)
# VH: EVKLEESGGGLVQPGGSMKLSCTASGFTFSDAWMDWVRQSPEKGLEWVAEIRNKANNHATYYAESVKGRFTISRDDSKSSVYLQMNSLRAEDTGIYYCILFITYAMDYWGQGTSVTVSS
# VL: DIVLTQSQKFMSTSVGDRVSITCKASQNVRTAVAWYQQKPGQSPKALIYLASNRHTGVPDRFTGSGSGTDFTLTISNVQSEDLADYFCLQHWNYPLTFGSGTKLELK
# B4: 1035433 (antibody, V domains shown)
# VH: QVQLQQSGPQLVRPGASVKISCKASGYSFTIYWMHWVQQRPGQGLEWIGMIDPSDSETRLNQKFKDKATLTVDKSSSTAYMQLSSPTSEDSAVYYCARRGDYNFDYWGQGTTLTVSS
# VL: DIVMTQAAPSVPATPGESVSISCRSSKSLLHSNGNTYLYWFLQRPGQSPQLLIFRMSNLASGVPDRFSGSGSGTAFTLRISRVEAEDVGVYYCMQHLEYPYTFGGGTKLEIK
# B5: 1035752 (antibody, V domains shown)
# VH: QVQLQQPGAELVRPGASVKMSCKASGYTFTSHSIHWVKQTPGQGLEWIGAVYPGNGDTSYYQKFKGKATLTADKSSSTAYMHLSSLTSEDSAVYYCARDGYSDYYAMDCWGQGTSVTVSS
# VL: DIVMTQSQKFMSTSVGDRVSVTCKASQNVGTNVAWYQQKPGQSPKALIYSASYRYSGVPDRFTGSGSGTDFTLTINNVQSEDLAEYFCQQYNRYPWTFGGGTKLEIK
# B6: 1035716 (antibody, V domains shown)
# VH: EVLLQQSGPELVKPGASVKIPCKASGYTFTDYNMDWVKQSHGKSLEWIGDINPNNGGTIYNQKFKGKATLTVDKSSSTAYMELRSLTSEDTAVYYCAREGYGNYFDYWGQGTTLTVSS
# VL: DILLTQSPAILSVSPGERVSFSCRASQSIGTSIHWYQQRTNGSPRLLIKYASESISGIPSRFSGSGSGTDYTLSINSVESEDIADYYCQQSYSWPTTFGAGTKLELK
# B7: 1035755 (antibody, V domains shown)
# VH: EVQLQQSGAELVRPGALVKLSCKASGFNIKDYYMHWVKQRPEQGLEWIGWIDPENGNSIYDPKFQGKASITADTSSNTAYLQLSSLTSEDTAVYYCATPSATSYFDYWGQGTTLTVSS
# VL: QIVLTQSPAIMSASPGEKVTISCSASSSVSYMYWYQQKPGSSPKPWIYRTSNLASGVPARFSGSGSGTSYSLTISSMEAEDAATYYCQQYHSYPYMYTFGGGTKLEIK
# Experiments:
# Experiment in all cases: flow cytometry, blocking of binding to hACE-2 cells
# [1] = target: rSARS2 RBD aa319-541, N439K, C-His (SARS-CoV-2, UniProt P0DTC2 319-541)
# [2] = target: IN v2 variant RBD (R319-F541 with L452R, T478K) (SARS-CoV-2, UniProt P0DTC2 319-541)
# [3] = target: rSARS2-B.1.617.2 S aa16-1211 10+4x aa mut., C-His (SARS-CoV-2, UniProt P0DTC2 16-1211)
# [4] = target: rSARS2-B.1.1.7 S aa16-1211 2x aa mut., C-His (SARS-CoV-2, UniProt P0DTC2 16-1211)
# [5] = target: BR P.1 variant RBD (R319-F541 with K417T, E484K, N501Y), C-terminal 6-His (SARS-CoV-2, UniProt P0DTC2 319-541)
# [6] = target: T1, recombinant SARS-CoV-2 spike S1 RBD (R319-F541), C-terminal 6-His (SARS-CoV-2, UniProt P0DTC2 319-541)
# [7] = target: T1, recombinant SARS-CoV-2 spike S1 RBD …; remark: listed apart in the source
# [8] = target: rSARS2-B.1.1.7 S aa16-1211 4x aa mut., C-His (SARS-CoV-2, UniProt P0DTC2 16-1211)
Binder,percent blocking [1] [%],percent blocking [2] [%],percent blocking [3] [%],percent blocking [4] [%],percent blocking [5] [%],percent blocking [6] [%],percent blocking [7] [%],percent blocking [8] [%]
B1,43,37.4,73.5,17.8,0.4,85.2,85.2,–
B2,18.1,1.7,0,76.3,0,98.7,98.7,72.4
B3,34.6,81.4,89.5,71.1,22,94.1,94.1,75.9
B4,0.9,18.4,93.8,82,0,93.7,93.7,23.5
B5,53,0.8,0,81.4,77.2,94.5,94.5,74.4
B6,96.2,96.5,89.3,94.4,95,94.6,94.6,81.5
B7,25.2,0.9,0,12,14.9,94.1,94.1,35.8
